Measurements published in article PMC6934326, “A kinase-dependent checkpoint prevents escape of immature ribosomes into the translating pool” (PLoS Biology, 2019).

Columns and labels:
Nob1 = assay: EMSA; conditions: 40 mM HEPES pH 7.6, 50 mM KCl, 10 mM MgCl2, 10 min at 30 C; trace 32P RNA prefolded at 65 C in 40 mM HEPES pH 7.6, 100 mM KCl, 2 mM MgCl2; 6% acrylamide/THEM …
MBP-Nob1 = target: T1, MBP-Nob1 (Saccharomyces cerevisiae (strain ATCC …, UniProt Q08444)); assay: MBP pull-down (amylose resin), Coomassie SDS-PAGE; tested with AMPPNP; Rio1 binding requires Pno1 as well as Nob1
T1 chain: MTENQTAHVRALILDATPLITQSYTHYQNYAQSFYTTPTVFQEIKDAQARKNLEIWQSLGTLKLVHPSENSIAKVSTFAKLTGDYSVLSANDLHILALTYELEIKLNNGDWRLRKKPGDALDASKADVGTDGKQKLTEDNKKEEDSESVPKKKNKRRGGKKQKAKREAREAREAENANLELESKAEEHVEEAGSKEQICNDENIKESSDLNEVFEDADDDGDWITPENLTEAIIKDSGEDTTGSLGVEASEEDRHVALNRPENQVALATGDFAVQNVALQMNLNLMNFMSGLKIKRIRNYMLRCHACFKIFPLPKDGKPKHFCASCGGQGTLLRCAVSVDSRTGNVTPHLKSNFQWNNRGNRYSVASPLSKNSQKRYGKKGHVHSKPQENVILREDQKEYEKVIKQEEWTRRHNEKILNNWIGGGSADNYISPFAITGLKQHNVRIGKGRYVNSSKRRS

MBP-Pno1 = target: T2, MBP-Pno1 (Saccharomyces cerevisiae (strain ATCC …, UniProt Q99216)); assay: MBP pull-down (amylose resin), Coomassie SDS-PAGE; tested with AMPPNP; Rio1 binding requires Nob1 as well as Pno1
T2 chain: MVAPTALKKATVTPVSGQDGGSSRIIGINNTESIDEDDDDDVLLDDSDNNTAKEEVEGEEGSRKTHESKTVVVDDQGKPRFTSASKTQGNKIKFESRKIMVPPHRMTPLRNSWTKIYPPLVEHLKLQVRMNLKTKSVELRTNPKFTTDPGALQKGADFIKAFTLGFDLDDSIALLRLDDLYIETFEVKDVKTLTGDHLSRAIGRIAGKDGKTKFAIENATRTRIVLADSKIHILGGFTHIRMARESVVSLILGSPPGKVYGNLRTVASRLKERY

Nob1–Pno1 complex = target: T3, Nob1–Pno1 complex (S. cerevisiae, UniProt Q08444 1-459; Q99216 1-274); assay: pull-down; 7 μM MBP-tagged protein held on amylose resin, 20 μM untagged protein; 50 mM HEPES pH 7.5, 200 mM NaCl, 5 mM MgCl2, 2 mM AMPPNP; 4 °C; eluted with 50 mM maltose; Coomassie-stained SDS-PAGE; conditions: both partners purified
T3 construct: Nob1, S. cerevisiae, untagged, as m2; Pno1, S. cerevisiae, untagged, as m3; The two proteins were added together with MBP-Rio1 and preincubated; the complex was not isolated beforehand; also called Nob1 and Pno1
T3 sequence (looked up) 1: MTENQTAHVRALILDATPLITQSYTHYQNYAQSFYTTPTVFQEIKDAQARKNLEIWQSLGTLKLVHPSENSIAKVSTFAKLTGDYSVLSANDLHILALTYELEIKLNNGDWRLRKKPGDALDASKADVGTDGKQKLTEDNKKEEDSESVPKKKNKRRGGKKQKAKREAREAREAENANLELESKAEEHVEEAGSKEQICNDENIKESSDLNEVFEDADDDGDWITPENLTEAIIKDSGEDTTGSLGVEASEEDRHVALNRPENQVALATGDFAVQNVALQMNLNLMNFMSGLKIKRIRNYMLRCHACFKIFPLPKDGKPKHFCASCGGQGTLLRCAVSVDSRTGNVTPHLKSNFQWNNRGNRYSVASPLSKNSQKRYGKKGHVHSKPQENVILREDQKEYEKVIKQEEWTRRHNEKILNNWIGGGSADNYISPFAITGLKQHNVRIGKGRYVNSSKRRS
T3 sequence (looked up) 2: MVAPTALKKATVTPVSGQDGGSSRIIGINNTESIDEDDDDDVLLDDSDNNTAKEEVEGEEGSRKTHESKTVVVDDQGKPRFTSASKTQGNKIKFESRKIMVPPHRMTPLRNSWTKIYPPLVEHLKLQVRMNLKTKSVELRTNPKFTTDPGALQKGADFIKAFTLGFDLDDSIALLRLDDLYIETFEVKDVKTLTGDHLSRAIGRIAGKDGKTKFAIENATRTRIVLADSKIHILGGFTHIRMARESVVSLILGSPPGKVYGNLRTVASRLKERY

[1] = target: T4, maltose-binding protein (MBP)-Rio1 (Saccharomyces cerevisiae (strain ATCC …, UniProt Q12196)); assay: MBP pull-down (amylose resin), Coomassie SDS-PAGE; tested with AMPPNP; Rio1 binds only when Nob1 and Pno1 are both present (with AMPPNP, little to none with ADP)
T4 chain: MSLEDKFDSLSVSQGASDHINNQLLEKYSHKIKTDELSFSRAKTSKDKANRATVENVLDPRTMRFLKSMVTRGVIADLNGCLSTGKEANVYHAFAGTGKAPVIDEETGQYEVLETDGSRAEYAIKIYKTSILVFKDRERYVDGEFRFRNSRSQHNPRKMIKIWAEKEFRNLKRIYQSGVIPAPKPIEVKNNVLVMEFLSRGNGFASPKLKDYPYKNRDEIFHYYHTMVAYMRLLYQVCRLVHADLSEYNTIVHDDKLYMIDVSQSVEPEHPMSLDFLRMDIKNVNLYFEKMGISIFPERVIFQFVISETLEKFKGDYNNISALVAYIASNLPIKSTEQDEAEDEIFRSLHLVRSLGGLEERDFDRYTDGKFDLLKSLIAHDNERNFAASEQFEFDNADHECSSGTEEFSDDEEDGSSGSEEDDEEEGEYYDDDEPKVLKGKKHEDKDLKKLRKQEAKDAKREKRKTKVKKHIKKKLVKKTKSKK

**Q.** For D-A2 (3'-ITS1 product), which Kd (Nob1) is on record?
**A.** Its Kd is 960 nM.

B1: maltose-binding protein (MBP)-Rio1 (enzyme, S. cerevisiae, UniProt Q12196 1-484, looked up)
chain: MSLEDKFDSLSVSQGASDHINNQLLEKYSHKIKTDELSFSRAKTSKDKANRATVENVLDPRTMRFLKSMVTRGVIADLNGCLSTGKEANVYHAFAGTGKAPVIDEETGQYEVLETDGSRAEYAIKIYKTSILVFKDRERYVDGEFRFRNSRSQHNPRKMIKIWAEKEFRNLKRIYQSGVIPAPKPIEVKNNVLVMEFLSRGNGFASPKLKDYPYKNRDEIFHYYHTMVAYMRLLYQVCRLVHADLSEYNTIVHDDKLYMIDVSQSVEPEHPMSLDFLRMDIKNVNLYFEKMGISIFPERVIFQFVISETLEKFKGDYNNISALVAYIASNLPIKSTEQDEAEDEIFRSLHLVRSLGGLEERDFDRYTDGKFDLLKSLIAHDNERNFAASEQFEFDNADHECSSGTEEFSDDEEDGSSGSEEDDEEEGEYYDDDEPKVLKGKKHEDKDLKKLRKQEAKDAKREKRKTKVKKHIKKKLVKKTKSKK
notes: Rio1, aspartate kinase, S. cerevisiae; cloned into pSV272 as a TEV-cleavable His6-MBP fusion; The tag was not cut off for this form; also called His-MBP-tagged Rio1; His6-MBP fusion protein; source: E. coli Rosetta DE3, purified (Ni-NTA, MonoQ, Superdex200)
**Q.** Which results are given for B1?
**A.** binding result (MBP-Nob1): no binding; binding result (MBP-Pno1): no binding; binding result (Nob1–Pno1 complex): binds

B2: Nob1 (protein)
chain: MTENQTAHVRALILDATPLITQSYTHYQNYAQSFYTTPTVFQEIKDAQARKNLEIWQSLGTLKLVHPSENSIAKVSTFAKLTGDYSVLSANDLHILALTYELEIKLNNGDWRLRKKPGDALDASKADVGTDGKQKLTEDNKKEEDSESVPKKKNKRRGGKKQKAKREAREAREAENANLELESKAEEHVEEAGSKEQICNDENIKESSDLNEVFEDADDDGDWITPENLTEAIIKDSGEDTTGSLGVEASEEDRHVALNRPENQVALATGDFAVQNVALQMNLNLMNFMSGLKIKRIRNYMLRCHACFKIFPLPKDGKPKHFCASCGGQGTLLRCAVSVDSRTGNVTPHLKSNFQWNNRGNRYSVASPLSKNSQKRYGKKGHVHSKPQENVILREDQKEYEKVIKQEEWTRRHNEKILNNWIGGGSADNYISPFAITGLKQHNVRIGKGRYVNSSKRRS
**Q.** Does B2 bind [1]?
**A.** Result: no binding

B3: Pno1 (protein)
chain: MVAPTALKKATVTPVSGQDGGSSRIIGINNTESIDEDDDDDVLLDDSDNNTAKEEVEGEEGSRKTHESKTVVVDDQGKPRFTSASKTQGNKIKFESRKIMVPPHRMTPLRNSWTKIYPPLVEHLKLQVRMNLKTKSVELRTNPKFTTDPGALQKGADFIKAFTLGFDLDDSIALLRLDDLYIETFEVKDVKTLTGDHLSRAIGRIAGKDGKTKFAIENATRTRIVLADSKIHILGGFTHIRMARESVVSLILGSPPGKVYGNLRTVASRLKERY
**Q.** Does B3 bind [1]?
**A.** Result: no binding
